Laboratory results published in patent publication US20060029603A1 (GlaxoSmithKline, published 2006).
Changes are numbered by the printed parent chain.

B1: H6L13 (antibody, human IgG1, kappa, V domains shown)
VH: QVQLVQSGAEVKKPGASVKVSCKASGYTFTSYWMHWVRQAPGQGLEWIGNINPSNGGTNYNEKFKSRATMTRDTSTSTAYMELSSLRSEDTAVYYCELGQGYWGQGTLVTVSS
VL: DIVMTQSPLSLPVTLGQPASISCRSSKSLLYKDGKTYLNWFQQRPGQSPQLLIYLMSTRASGVPDRFSGGGSGTDFTLKISRVEAEDVGVYYCQQLVEYPLTFGQGTKLEIKR
notes: Humanised 2A10; Human gamma1 mutated constant region and human kappa; also called H6L13 FL
B2: H16L17 (antibody, V domains shown)
VH: B1 VH with R38K, A40R, R67K, M70L, R72V, T74K
VL: B1 VL with S7D, P64S, G70S
notes: copies: 2 + 2
B3: H17L18 (antibody)
heavy: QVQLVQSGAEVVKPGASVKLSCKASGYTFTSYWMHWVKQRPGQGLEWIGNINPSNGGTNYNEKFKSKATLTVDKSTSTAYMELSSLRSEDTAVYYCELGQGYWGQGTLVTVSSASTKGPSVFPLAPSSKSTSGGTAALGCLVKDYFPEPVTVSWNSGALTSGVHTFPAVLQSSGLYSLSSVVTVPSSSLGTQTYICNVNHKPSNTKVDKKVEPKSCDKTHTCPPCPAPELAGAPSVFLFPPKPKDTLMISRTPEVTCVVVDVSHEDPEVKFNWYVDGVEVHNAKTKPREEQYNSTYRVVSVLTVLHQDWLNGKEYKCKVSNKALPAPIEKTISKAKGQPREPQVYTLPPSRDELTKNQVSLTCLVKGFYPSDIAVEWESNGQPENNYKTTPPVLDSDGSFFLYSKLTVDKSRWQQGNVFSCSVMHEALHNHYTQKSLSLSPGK
light: DIVMTQDPLSNPVTLGQPVSISCRSSKSLLYKDGKTYLNWFLQRPGQSPQLLIYLMSTRASGVSDRFSGSGSGTDFTLKISRVEAEDVGVYYCQQLVEYPLTFGQGTKLEIKRTVAAPSVFIFPPSDEQLKSGTASVVCLLNNFYPREAKVQWKVDNALQSGNSQESVTEQDSKDSTYSLSSTLTLSKADYEKHKVYACEVTHQGLSSPVTKSFNRGEC
notes: copies: 2 + 2
B4: H18L18 (antibody, human IgG1, kappa, V domains shown)
VH: B1 VH with K12V, V20L, R38K, A40R, R67K, M70L, R72V, T74K, T76S, T91S
VL: B1 VL with S7D, L11N, A19V, Q42L, P64S, G70S
notes: Tested as CHO-K1 supernatant
B5: H14L16 (antibody, human IgG1, kappa, V domains shown)
VH: B1 VH with K12V, V20L, R38K, M70L
VL: B1 VL with L11N, A19V, Q42L
B6: H15L18 (antibody, human IgG1, kappa, V domains shown)
VH: B1 VH with K12V, V20L, R38K, A40R, R67K, M70L, R72V, T76S, T91S
VL: B1 VL with S7D, L11N, A19V, Q42L, P64S, G70S
notes: Tested as CHO-K1 supernatant
B7: H16L18 (antibody, human IgG1, kappa)
heavy: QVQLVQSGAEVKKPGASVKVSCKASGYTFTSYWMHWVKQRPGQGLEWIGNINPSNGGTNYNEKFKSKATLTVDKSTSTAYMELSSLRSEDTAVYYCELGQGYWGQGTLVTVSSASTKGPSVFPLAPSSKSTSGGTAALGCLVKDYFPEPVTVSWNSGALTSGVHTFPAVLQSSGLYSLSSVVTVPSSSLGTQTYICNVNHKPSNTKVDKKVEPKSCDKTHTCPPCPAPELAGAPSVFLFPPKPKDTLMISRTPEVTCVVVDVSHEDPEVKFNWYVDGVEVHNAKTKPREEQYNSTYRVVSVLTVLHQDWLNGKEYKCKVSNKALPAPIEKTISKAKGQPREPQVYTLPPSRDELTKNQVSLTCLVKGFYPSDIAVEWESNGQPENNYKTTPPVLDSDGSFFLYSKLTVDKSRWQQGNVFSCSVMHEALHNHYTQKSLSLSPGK
light: B3 light
notes: Humanised 2A10; Human gamma1 mutated constant region and human kappa; also called H16L18 FL
B8: H17L13 (antibody, human IgG1, kappa)
heavy: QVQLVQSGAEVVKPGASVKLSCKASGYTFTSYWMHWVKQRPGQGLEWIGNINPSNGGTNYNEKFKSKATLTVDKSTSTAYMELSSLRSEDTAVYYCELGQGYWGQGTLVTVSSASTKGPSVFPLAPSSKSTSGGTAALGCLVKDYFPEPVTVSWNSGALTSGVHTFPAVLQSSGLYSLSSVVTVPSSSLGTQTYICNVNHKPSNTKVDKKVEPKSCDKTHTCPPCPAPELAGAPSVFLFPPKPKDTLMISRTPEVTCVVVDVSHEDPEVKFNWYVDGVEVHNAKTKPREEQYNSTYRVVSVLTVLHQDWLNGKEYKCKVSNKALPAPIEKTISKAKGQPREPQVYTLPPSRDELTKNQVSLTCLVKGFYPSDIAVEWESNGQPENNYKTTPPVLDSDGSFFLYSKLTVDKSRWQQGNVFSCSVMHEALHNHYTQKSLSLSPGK
light: B3 light with D7S, N11L, V19A, L42Q, S64P, S70G
notes: Tested as CHO-K1 supernatant
B9: H6L16 (antibody, human IgG1, kappa)
heavy: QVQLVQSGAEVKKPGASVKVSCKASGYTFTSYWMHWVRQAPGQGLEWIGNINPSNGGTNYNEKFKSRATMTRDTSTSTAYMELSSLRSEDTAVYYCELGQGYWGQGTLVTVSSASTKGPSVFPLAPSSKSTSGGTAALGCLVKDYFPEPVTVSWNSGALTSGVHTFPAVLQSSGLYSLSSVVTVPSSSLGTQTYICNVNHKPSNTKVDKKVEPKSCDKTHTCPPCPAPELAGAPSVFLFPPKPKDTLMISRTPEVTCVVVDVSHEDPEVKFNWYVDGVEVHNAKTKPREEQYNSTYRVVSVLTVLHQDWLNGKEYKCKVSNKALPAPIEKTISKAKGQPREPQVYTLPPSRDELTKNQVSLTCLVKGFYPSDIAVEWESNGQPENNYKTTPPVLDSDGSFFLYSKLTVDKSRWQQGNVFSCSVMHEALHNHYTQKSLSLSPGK
light: B3 light with D7S, S64P, S70G
notes: Tested as CHO-K1 supernatant
B10: H6L17 (antibody, human IgG1, kappa, V domains shown)
VH: B1 VH
VL: B1 VL with S7D, P64S, G70S
notes: Tested as CHO-K1 supernatant
B11: H14L13 (antibody, human IgG1, kappa, V domains shown)
VH: B1 VH with K12V, V20L, R38K, M70L
VL: B1 VL
notes: Tested as CHO-K1 supernatant
B12: H14L18 (antibody, human IgG1, kappa, V domains shown)
VH: B1 VH with K12V, V20L, R38K, M70L
VL: B1 VL with S7D, L11N, A19V, Q42L, P64S, G70S
B13: H15L13 (antibody, human IgG1, kappa, V domains shown)
VH: B1 VH with K12V, V20L, R38K, A40R, R67K, M70L, R72V, T76S, T91S
VL: B1 VL
notes: Tested as CHO-K1 supernatant
B14: H15L16 (antibody, human IgG1, kappa, V domains shown)
VH: B1 VH with K12V, V20L, R38K, A40R, R67K, M70L, R72V, T76S, T91S
VL: B1 VL with L11N, A19V, Q42L
notes: Tested as CHO-K1 supernatant
B15: H16L13 (antibody, human IgG1, kappa)
heavy: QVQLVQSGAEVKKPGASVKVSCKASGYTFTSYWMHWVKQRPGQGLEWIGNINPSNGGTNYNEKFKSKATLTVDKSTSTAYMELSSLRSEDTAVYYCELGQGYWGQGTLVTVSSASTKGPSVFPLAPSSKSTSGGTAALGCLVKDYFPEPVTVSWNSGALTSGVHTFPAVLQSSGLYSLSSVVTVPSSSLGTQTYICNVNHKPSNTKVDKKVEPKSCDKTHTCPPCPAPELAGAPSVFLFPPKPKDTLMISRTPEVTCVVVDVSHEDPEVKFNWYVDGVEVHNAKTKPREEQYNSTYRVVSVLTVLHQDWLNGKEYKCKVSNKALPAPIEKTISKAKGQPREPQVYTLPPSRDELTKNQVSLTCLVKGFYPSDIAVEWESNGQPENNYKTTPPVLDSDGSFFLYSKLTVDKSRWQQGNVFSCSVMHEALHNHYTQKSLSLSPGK
light: B3 light with D7S, N11L, V19A, L42Q, S64P, S70G
notes: Tested as CHO-K1 supernatant
B16: H18L13 (antibody, human IgG1, kappa, V domains shown)
VH: B1 VH with K12V, V20L, R38K, A40R, R67K, M70L, R72V, T74K, T76S, T91S
VL: B1 VL
notes: Tested as CHO-K1 supernatant
B17: H1L11 (antibody, human IgG1, kappa, V domains shown)
VH: B1 VH with I48M, A68V, A79V
VL: B1 VL with M4I
notes: Earlier humanised 2A10

What follows are binders tested against T1, GST-human NOGO-A56 (human, UniProt P08515 1-218 = GST) (assay: ELISA, coated GST-human NOGO-A56, transfection supernatant, anti-human kappa-HRP, OD 490 nm).
T1 construct: GST-tagged fusion expressed in E. coli BL21 and purified on glutathione-sepharose; coated on ELISA plates or amine-coupled to a CM5 chip; also called hNOGO; recombinant human NOGO
Experimental: (§1) GST-human NOGO-A56 (SEQ ID: 76) at 1 μg/ml in PBS was coated onto Nunc Immunosorp plates (100 μl per well) at 4° C. overnight. Wells were rinsed once with TBS+0.05% Tween (TBST) then incubated with 2% BSA in TBST to block non-specific binding sites at room temperature for 1 hour. Antibodies were diluted in TBST+2% BSA to 10 μg/ml and 1/2 dilutions made from this. Antibodies were added to wells in duplicate and incubated at room temperature for 1 hour. Wells were washed three times with TBST then incubated with anti-human kappa peroxidase conjugate (1:2000) for 1 hour. The wells were washed three times with TBST and then incubated with 100 μl OPD peroxidase substrate (Sigma) per well for 10 minutes. The colour reaction was stopped by the addition of 25 μl concentrated H₂SO₄. Optical density at 490 nm was measured using a plate reader. Background values read from wells with no antibody were subtracted.

T1 sequence (P08515 1-218, tags or fused parts left off): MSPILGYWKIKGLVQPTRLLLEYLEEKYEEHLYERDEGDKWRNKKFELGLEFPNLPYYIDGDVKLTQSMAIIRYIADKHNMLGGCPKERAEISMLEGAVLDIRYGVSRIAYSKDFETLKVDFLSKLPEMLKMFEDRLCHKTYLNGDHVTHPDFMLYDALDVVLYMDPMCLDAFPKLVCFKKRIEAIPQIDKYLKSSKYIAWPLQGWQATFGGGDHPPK

| Binder | EC50 (read off the curve) [µg/mL] |
| --- | --- |
| B1 | ~0.2 |
| B2 | ~0.1 |
| B3 | ~0.1 |
| B4 | ~0.1 |

Target: T1, GST-human NOGO-A56
Assay: as above
Remark: another data set of the same source
Experimental: as §1

| Binder | EC50 (read off the curve) [µg/mL] |
| --- | --- |
| B5 | ~0.08 |
| B6 | ~0.04 |
| B7 | ~0.03 |

The binders below were run against T1, GST-human NOGO-A56 (assay: SPR (Biacore) off-rate ranking, CHO-K1 transient supernatant over GST-human NOGO-A56 chip; single experiment).
Experimental: (§2) hNOGO (GST-human NOGO-A56) was immobilised to a CM5 chip by primary amine coupling using the Biacore Wizard program designed for targeted immobilisation levels. The CM5 sensor surface was activated by passing a solution of 50 mM N-hydroxy-succinimide (NHS) and 200 mM N-ethyl-N′-dimethylaminopropyl […] (EDC). Then hNOGO in sodium acetate buffer, pH5.0 or pH 4.5, was passed over the chip and immobilised. After immobilisation was complete any still activated esters were blocked by an injection of 1M ethanolamine hydrochloride, pH8.5.
(§3) The hNOGO chip was prepared as for kinetic analysis. Cell supernatants where taken directly from transient transfections of CHO-K1 cells. These were passed directly over the sensor surface and the interaction measured. A mock transfected cell supernatant was used for double referencing to remove any artefacts due to the tissue culture media. All runs were referenced against a blanked sensor surface (one that had been activated and blocked as described earlier but had no addition of ligand). Analysis of binding was carried out using the BIAevaluation kinetic analysis software version 4.1.

| Binder | koff [s⁻¹] |
| --- | --- |
| B8 | 0.00931 |
| B9 | 0.0114 |
| B10 | 0.0158 |
| B11 | 0.0138 |
| B5 | 0.0089 |
| B12 | 0.00835 |
| B13 | 0.00965 |
| B14 | 0.00604 |
| B6 | 0.00594 |
| B15 | 0.00907 |
| B16 | 0.00907 |
| B4 | 0.0058 |

These binders were tested against T1, GST-human NOGO-A56 (assay: SPR (Biacore) off-rate ranking, CHO-K1 transient supernatant over GST-human NOGO-A56 chip; mean (SD) of three runs).
Experimental: as §2, §3

| Binder | koff [s⁻¹] |
| --- | --- |
| B17 | 0.0403 |
| B1 | 0.0173 |
| B7 | 0.00609 |

Target: T1, GST-human NOGO-A56
Assay: ELISA, coated GST-human NOGO-A56, transfection supernatant, anti-human kappa-HRP, OD 490 nm
Remark: another data set of the same source
Experimental: as §1

| Binder | EC50 (read off the curve) [µg/mL] |
| --- | --- |
| B5 | ~0.09 |

Target: T1, GST-human NOGO-A56
Assay: as above
Remark: another data set of the same source
Experimental: as §1

| Binder | EC50 (read off the curve) [µg/mL] |
| --- | --- |
| B7 | ~0.4 |

Each binder was assayed against T1, GST-human NOGO-A56 (assay: SPR (Biacore 3000), GST-human NOGO-A56 amine-coupled to CM5, antibody as analyte; mean (SD) of four experiments).
Experimental: (§4) The binding kinetics of the anti-NOGO monoclonal antibody (mAb) to recombinantly expressed human NOGO-A (GST-human NOGO-A56) was analysed using the Biacore3000 biosensor. The hNOGO-A chip was prepared as follows:
as §2
(§5) The anti-NOGO mAbs were diluted down in HBS-EP (10 mM HEPES, pH 7.4, 150 mM NaCl, 3 mM EDTA, and 0.005% P-20 surfactant) and binding studies were carried out at range of defined antibody concentrations. All runs were referenced against a blanked sensor surface (one that had been activated and blocked as described earlier but had no addition of ligand). Analysis of binding was carried out using the BIAevaluation kinetic analysis software version 4.1. Biacore analysis of other antibodies of the invention essentially followed the same protocol as described herein.

| Binder | Kd [nM] | koff [s⁻¹] | kon [M⁻¹ s⁻¹] |
| --- | --- | --- | --- |
| B17 | 18.6 | 0.0314 | 1.73e+06 |
| B1 | 7.68 | 0.0137 | 1.82e+06 |
| B7 | 1.33 | 0.00552 | 4.18e+06 |

Target: T1, GST-human NOGO-A56
Assay: ELISA, coated GST-human NOGO-A56, transfection supernatant, anti-human kappa-HRP, OD 490 nm
Remark: another data set of the same source
Experimental: as §1

| Binder | EC50 (read off the curve) [µg/mL] |
| --- | --- |
| B8 | ~0.06 |
| B15 | ~0.08 |
| B7 | ~0.04 |

What follows are binders tested against T1, GST-human NOGO-A56 (assay: SPR (Biacore 3000), GST-human NOGO-A56 on CM5, antibody as analyte; single experiment).
Experimental: as §4, §2, §5

| Binder | Kd [nM] | koff [s⁻¹] | kon [M⁻¹ s⁻¹] |
| --- | --- | --- | --- |
| B17 | 21.3 | 0.0284 | 1.33e+06 |
| B1 | 7.3 | 0.013 | 1.77e+06 |
| B5 | 3.6 | 0.00739 | 2.05e+06 |
| B12 | 3.6 | 0.00869 | 2.41e+06 |

Target: T1, GST-human NOGO-A56
Assay: as above
Remark: another data set of the same source
Experimental: as §2, §5

| Binder | Kd [nM] | koff [s⁻¹] | kon [M⁻¹ s⁻¹] |
| --- | --- | --- | --- |
| B1 | 7.9 | 0.0233 | 2.95e+06 |

Target: T1, GST-human NOGO-A56
Assay: ELISA, coated GST-human NOGO-A56, transfection supernatant, anti-human kappa-HRP, OD 490 nm
Remark: another data set of the same source
Experimental: as §1

| Binder | EC50 (read off the curve) [µg/mL] |
| --- | --- |
| B13 | ~0.05 |
| B7 | ~0.06 |
